In this test the target is HA-tagged PP2A catalytic Cα subunit p.Cys196Arg variant (human) (UniProt P67775). In words: co-IP; HA pull-down: lysates of HEK293T cells transfected with HA-Cα incubated 1 h at 4°C with anti-HA-agarose beads in NENT100 buffer with 1 mg/ml BSA; washes with 300 and 150 mM NaCl; endogenous A subunit detected by anti-A immunoblot, quantified against the anti-HA signal, WT set at 100%.

Consider one substance from publication PMC9748336.

“endogenous PP2A A subunit (from UniProt P30153 1-589) (natural protein)” registered a percent decrease of binding against Cα WT of 40%.
